# In PMC2763920 (Electrophoresis, 2009):
# Where “and” joins values, the source holds several entries; their conditions need not be identical. Equal entries are not always repeated. Square brackets hold non-standard residues; d marks the D form. Ends that are not written are not given here. pY = N[C@@H](Cc1ccc(OP(=O)(O)O)cc1)C(=O)O
# B1: Fluor-Fyn peptide (fluorescein-EEEEPQpYEEIPIYL) (peptide)
# peptide: fluorescein-EEEEPQ[pY]EEIPIYL
# Legend:
# GST-Fyn-SH3-SH2 [1] = target: T1, GST-Fyn-SH3-SH2 (fluorescein on the N-terminus; phosphotyrosine (pY) at position 7 of the printed letters); assay: high-speed capillary electrophoresis
# GST-Fyn-SH3-SH2 [2] = target: T1, GST-Fyn-SH3-SH2; assay: fluorescence polarisation
# GST-Fyn-SH3-SH2 [3] = target: T1, GST-Fyn-SH3-SH2; assay: high-speed capillary electrophoresis; remark: listed apart in the source
binder,measurement,setting,value
B1,stoichiometry N,GST-Fyn-SH3-SH2 [1],"0.5 peptide per protein (printed 2:1 protein: peptide, complex 1) and 1 peptide per protein (printed 2:2 protein: peptide, complex 2)"
same,"t1/2, two component decay, first component",GST-Fyn-SH3-SH2 [2],3.3 s
same,"t1/2, two component decay, second component",GST-Fyn-SH3-SH2 [2],59.5 s
same,"t1/2 of the complex, single exponential decay",GST-Fyn-SH3-SH2 [2],21.2 ± 1.3 s
same,t1/2 of complex 1,GST-Fyn-SH3-SH2 [3],22 s
same,t1/2 of complex 2,GST-Fyn-SH3-SH2 [3],58.8 s
